# Source: US20260124210A1
# Target: mouse PD-L1 (surface receptor on LLC-JSP and 4T1 murine cancer cells) (mouse) (UniProt Q9EP73)
# Assay: flow cytometry uptake of dye-siRNA tagged p-iPLK1-NP by 4T1 cells, 1 h exposure (FIG. 11B)
# Chain of mouse PD-L1 (surface receptor on LLC-JSP and 4T1 murine cancer cells) (mouse) (Q9EP73 19-290): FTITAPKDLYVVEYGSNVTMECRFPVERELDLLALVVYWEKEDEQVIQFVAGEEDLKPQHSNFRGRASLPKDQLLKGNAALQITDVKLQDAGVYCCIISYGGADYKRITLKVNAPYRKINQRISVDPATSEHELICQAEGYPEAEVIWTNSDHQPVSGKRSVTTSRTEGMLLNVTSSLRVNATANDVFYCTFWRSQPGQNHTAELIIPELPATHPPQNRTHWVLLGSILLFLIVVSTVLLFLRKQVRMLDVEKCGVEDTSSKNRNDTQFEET
substance,measurement,value
"p-iPLK1-NP (mesoporous silica nanoparticle coated with PEI and PEG, loaded with PLK1 inhibitor volasertib and conjugated with mouse PD-L1 antibody)","cellular uptake, PD-L1 high cells vs. PD-L1 low cells (fold)",4 fold
